Results as given in patent US7514534 (DYAX, dated 2009).
Positions count from the first letter of the chain named.

T1: MMP-26 catalytic domain, tagged with hexa-histidine (human, UniProt Q9NRE1 90-261)
T1 construct: the forward primer adds Met-Ala before it; also called MMP-26 target protein; Matrilysin-2; not shown: Also any N-terminal residues added by the forward primer (Met-Ala according to our card; the primers were not visible to me)
T1 sequence: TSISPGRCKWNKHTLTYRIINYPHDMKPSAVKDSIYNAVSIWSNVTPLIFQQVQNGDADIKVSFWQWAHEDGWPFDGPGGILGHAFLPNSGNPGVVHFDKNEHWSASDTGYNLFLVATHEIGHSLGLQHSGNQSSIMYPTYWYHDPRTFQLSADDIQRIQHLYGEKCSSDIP

B1: A01 (antibody, human IgG4, V domains shown)
VH: EVQLLESGGGLVQPGGSLRLSCAASGFTFSAYNMFWVRQAPGKGLEWVSGIGSSGGIAPYADSVKGRFTISRDNSKNTLYLQMNSLRAEDTAVYYCARAAYEVENWFDPWGQGTLVTVSS
VL: DIQMTQSPGTLSLSPGERATLSCRASQIVRSTYLAWYQQKPGQAPRLLIYGTSSRATGVPDRFSGSGSGTDFTLTISGLEPEDFALYYCQRYGDSPPITFGQGTRLEITR
notes: whole human IgG4
B2: B06 (antibody, human IgG4, V domains shown)
VH: EVQLLESGGGLVQPGGSLRLSCAASGFTFSQYFMKWVRQAPGKGLEWVSSISPSGGLTQYADSVKGRFTISRDNSKNTLYLQMNSLRAEDTAVYYCARGGIEAPGSPSDYWGQGTLVTVSS
VL: DIQMTQSPSFLSASVGDRVTITCRASQGISSYLAWYQQKPGKAPKLLIYAASTLQSGVPSRFSGSGSGTDFTLTISSLEPEDFATYYCQESYSTPFFTFGPGTKVDIRR
notes: whole human IgG4
B3: A10 (antibody, human IgG4, V domains shown)
VH: EVQLLESGGGLVQPGGSLRLSCAASGFTFSAYRMFWVRQAPGKGLEWVSSIWPSGGTTSYADSVKGRFTISRDNSKNTLYLQMNSLRAEDTAVYYCARDRGYDSSGYFDYWGQGTLVTVSS
VL: QSELTQPPSASGTPGQRVTISCSGGSSNIGSNYVSWYQQLPGTAPKLLIYNNNQRPSGVPDRFSGSKSGTSASLAISGLRSEDEADYYCAAWDDSLSSAVFGGGTQLTVLG
notes: whole human IgG4
B4: A12 (antibody, human IgG4, V domains shown)
VH: EVQLLESGGGLVQPGGSLRLSCAASGFTFSAYWMDWVRQAPGKGLEWVSVIYPSGGSTNYADSVKGRFTISRDNSKNTLYLQMNSLRAEDTAVYYCAREGIAAAAPMDVWGKGTTVTVSS
VL: DIQMTQSPGTLSLSPGERATLSCRASQSVSRSYLGWYQQKPGQAPRLLIYGASNRATGIPDRFSGSGSGTDFTLTISRLEPEDFAVYYCQQYGISPLTFGPGTKVDIKR
notes: whole human IgG4
B5: B08 (antibody, human IgG4, V domains shown)
VH: EVQLLESGGGLVQPGGSLRLSCAASGFTFSRYMMNWVRQAPGKGLEWVSVIWSSGGKTLYADSVKGRFTISRDNSKNTLYLQMKSLRAEDTAVYYCARGGYNNYYYSMDVWGQGTTVTVSS
VL: QSELTQPHSVSGSPGKTVTISCTRSSGSIAGNYVQWYQQRPGSSPTTVIYEDNKRPSGVPDRFSGSIDSSSNSASLIISGLKTEDEADYYCHSYDTSNQVFGGGTKLTVLG
notes: whole human IgG4
B6: A11 (antibody, human IgG4, V domains shown)
VH: EVQLLESGGGLVQPGGSLRLSCAASGFTFSWYTMMWVRQAPGKGLEWVSRISPSGGHTLYADSVKGRFTISRDNSZNTLYLQMNSLRAEDTAVYYCARDTWDDYYDSSGYYNDFDYWGQGTLVTVSS
VL: QSALTQPPSVSLAPGQTARITCGGNNIGTKSVHWYQQKPGQAPVLVVYDDSDRPSGIPERFSGSNSGNTATLTISRVEAGDEADYYCQVWDSGSDHQVFGGGTKLTVLG
notes: whole human IgG4; the VHC entry has one unread residue (printed z, K75z)
B7: B10 (antibody, human IgG4, V domains shown)
VH: EVQLLESGGGLVQPGGSLRLSCAASGFTFSSYAMMWVRQAPGKGLEWVSWIVPSGGTTFYADSVKGRFTISRDNSKNTLYLQMNSLRAEDTAVYYCARGLYRWGQGTLVTVSSASTKGPSVFP
VL: DIQMTQSPSSLSASVGDRVTIACRTSQNVNRYLNWYQHKLGQAPKLLIYGATILQSGVPSRFRGSGSGTDFILTITNLQPEDFAVYYCQQTYSPPLTFGQGTKAEFKGTVAAPSV
notes: whole human IgG4
B8: B01 (antibody, human IgG4, V domains shown)
VH: EVQLLESGGGLVQPGGSLRLSCAASGFTFSTYDMLWVRQAPGKGLEWVSSISPSGGSTSYADSVKGRFTISRDNSKNTLYLQLNSLRAEDTAVYYCAREKASDLSGTYSEALDHWGQGTLVTVSS
VL: DIQMTQSPGTLSLSPGERATLSCRASQSVSSSYFAWYQQKPGQAPRLLIYDASSRATGIPDRFSGSGSGTDFTLTISRLEPEDFAVYYCQQYGSSPPMYTFGQGTKLEIKR
notes: whole human IgG4
B9: C12 (antibody, V domains shown)
VH: EVQLLESGGGLVQPGGSLRLSCAASGFTFSAYNMMWVRQAPGKGLEWVSRIYPSGGYTLYADSVKGRFTISRDNSKNTLYLQMNSLRAEDTAVYYCARQKLMIRAVRPFDYWGQGTLVTVSS
VL: QSELTQPPSVSVSPAQTASITCSGDKLGDKYACWYQQKPGQSPVLVIYEDTKRPSGIPERFSGSNSGNTATLTISGTQVMDEADYYCQVWDSSTAVFGGGTKLTVLG
notes: whole human IgG4
B10: H6-orig (antibody, human IgG4, V domains shown)
VH: EVQLLESGGGLVQPGGSLRLSCAASGFTFSQYWMNWVRQAPGKGLEWVSGIGPSGGITYYADSVKGRFTISRDNSKNTLYLQMNSLRAEDTAVYYCARGEEDGYNSDYWGQGTLVTVSS
VL: QSELTQPPSASGSPGQSVTISCTGTSSDVGAYNYVSWYQQHPGKAPKLIIYEVNKRPSGVPDRFSASKSGNTASLTVSGLQAEDEADYYCNSYAGSNSLIFGGGTKLTVLG
notes: whole human IgG4
B11: B04 (antibody, human IgG4, V domains shown)
VH: EVQLLESGGGLVQPGGSLRLSCAASGFTFSFYWMMWVRQAPGKGLEWVSGISSSGGFTKYADSVKGRFTISRDNSKNTLYLQMNSLRAEDTAVYYCARETSRRAFDIWGQGTMVTVSS
VL: DIQMTQSPSSVSASVGDRVTITCRASQGISKSLAWYQQKPGKAPKLLVYGAFSLESGVPSRFSGTGAGTDFILTISRLQPEDFATYYCQQANSFPLTFGGGTKVEIKR
notes: whole human IgG4
B12: D6-orig (antibody, human IgG4, V domains shown)
VH: EVQLLESGGGLVQPGGSLRLSCAASGFTFSMYSMRWVRQAPGKGLEWVSSIYPSGGSTEYADSVKGRFTISRDNSKNTLYLQMNSLRAEDTAVYYCAREGGENDYWGQGTLVTVSS
VL: DIQMTQSPLSLSASVGDRVAITCRASQSIDTYLNWYQQKPGKAPKLLIYAASKLEDGVPSRFSGSGTGTDFTLTIRSLQPEDFASYFCQQSYSSPGITFGPGTKVEIKR
notes: whole human IgG4
B13: B02 (antibody, human IgG4, V domains shown)
VH: EVQLLESGGGLVQPGGSLRLSCAASGFTFSDYFMKWVRQAPGKGLEWVSSIYPSGGPTKYADSVKGRFTISRDNSKNTLYLQMNSLRAEDTAVYYCARERSSGWYGYYYYGMDVWGQGTTVTVSS
VL: B12 VL with L9S
notes: whole human IgG4
B14: B07 (antibody, human IgG4, V domains shown)
VH: EVQLLESGGGLVQPGGSLRLSCAASGFTFSQYQMIWVRQAPGKGLEWVSVIVPSGGITNYADSVKGRFTISRDNSKNTLYLQMNSLRAEDTAVYYCARGGVEAVDSSSPDYWGQGTLVTVSS
VL: DIQMTQSPATLSLSPGERATLSCRASQSVSSYLAWYQQKPGQAPRLLIYDASNRATGIPARFSGSGSGTDFTLTISSLEPEDFAVYYCQQRSNWPRTFGGGTKVEIKR
notes: whole human IgG4
B15: A1-orig (antibody, human IgG4, V domains shown)
VH: EVQLLESGGGLVQPGGSLRLSCAASGFTFSYYRMSWVRQAPGKGLEWVSSIGPSGGDTLYADSVKGRFTISRDNSKNTLYLQMNSLRAEDTAVYYCARSFSSGPYYFDYWGQGTLVTVSS
VL: QSVLTQPPSASGTPGQRVIISCSGSSSNIGSHYVHWYQQVPGTAPKLLIYRNGQRPSGVPDRFSGFKSGTSASLAISGLRSEDEANYYCATWDDSVLFGGGTTLTVLG
notes: whole human IgG4

Each binder was assayed against T1, MMP-26 catalytic domain, tagged with … (assay: bead-based ELISA, MMP-26 on nickel beads, IgG4 culture supernatant).
Description: Reformatted and expressed full-length MMP-26 binding IgG4 antibodies were tested for specificity in a bead-based ELISA. Approximately 1.25 μg of MMP-26 protein was bound to nickel-coated magnetic beads (Novagen) which had been pre-blocked with phosphate buffered saline containing 5% (w/v) nonfat dry milk and 0.05% (v/v) Tween-20. The beads were washed in phosphate buffered saline containing 0.05% (v/v) Tween-20 (PBS-T) and 100 uls of unpurified cell culture supernatant containing transiently produced MMP-26-binding antibodies was added and incubated on a rotator for sixty minutes. The beads were washed with PBS-T and MMP-26-binding antibodies were detected with an HRP-conjugated anti-human secondary antibody. Data is expressed in fold over background where background consists of beads, blocking agent, and culture supernatant containing target antibody (Table 2; in this table, Results shown as fold over background (F>B) where background consists of beads, blocking agent, and culture supernatant).

F > B (fold over background)	Binder
3.3 fold over background	B1
2.1 fold over background	B2
1.84 fold over background	B3
1.8 fold over background	B4
3 fold over background	B5
1.7 fold over background	B6
2.7 fold over background	B7
2.3 fold over background	B8
1.8 fold over background	B9

What follows are binders tested against T2, MMP-3 (UniProt P08254 100-477, limits assumed) (assay: cross-reactivity ELISA on coated MMP).
T2 construct: also called stromelysin-1
Description: (§1) Twenty-one of the reformatted MMP-26 antibodies were tested for MMP cross reactivity by ELISA analysis. MMP-3, MMP-7, MMP-9, and MMP-12 were coated onto Immulon 2 HB 96-well plates at a concentration of 1 μg/ml for 1 hour at 37° C. The plates were blocked with PBS-T containing 5% (w/v) nonfat dry milk for thirty minutes and subsequently washed with PBS-T. Each antibody was tested for reactivity to all of the above mentioned MMPs at a concentration of 2 μg/ml with an incubation time of 1 hour. Bound antibody was detected with an HRP-conjugated anti-human secondary antibody (Table 3, NT=not tested.).

T2 sequence (P08254 100-477 limits assumed): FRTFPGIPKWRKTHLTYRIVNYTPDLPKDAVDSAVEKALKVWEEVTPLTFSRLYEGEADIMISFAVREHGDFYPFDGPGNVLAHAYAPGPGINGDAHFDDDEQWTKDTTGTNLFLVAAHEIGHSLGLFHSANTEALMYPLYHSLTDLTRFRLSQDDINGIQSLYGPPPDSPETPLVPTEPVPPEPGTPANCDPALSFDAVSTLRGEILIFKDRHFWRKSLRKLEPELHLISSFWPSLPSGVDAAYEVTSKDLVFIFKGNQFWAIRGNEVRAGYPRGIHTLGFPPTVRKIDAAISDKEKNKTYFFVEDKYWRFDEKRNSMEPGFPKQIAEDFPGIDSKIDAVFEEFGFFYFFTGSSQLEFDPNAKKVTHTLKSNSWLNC

binding result	Binder
no binding (tested: 2 µg/ml)	B10
no binding (tested: 2 µg/ml)	B1
no binding (tested: 2 µg/ml)	B2
no binding (tested: 2 µg/ml)	B11
no binding (tested: 2 µg/ml)	B3
no binding (tested: 2 µg/ml)	B4
no binding (tested: 2 µg/ml)	B12
no binding (tested: 2 µg/ml)	B13
no binding (tested: 2 µg/ml)	B5
no binding (tested: 2 µg/ml)	B6
no binding (tested: 2 µg/ml)	B14
no binding (tested: 2 µg/ml)	B8
no binding (tested: 2 µg/ml)	B15

What follows are binders tested against T3, MMP-9 (UniProt P14780 107-707, limits assumed) (assay: cross-reactivity ELISA on coated MMP).
T3 construct: also called gelatinase
Description: as §1

T3 sequence (P14780 107-707 limits assumed): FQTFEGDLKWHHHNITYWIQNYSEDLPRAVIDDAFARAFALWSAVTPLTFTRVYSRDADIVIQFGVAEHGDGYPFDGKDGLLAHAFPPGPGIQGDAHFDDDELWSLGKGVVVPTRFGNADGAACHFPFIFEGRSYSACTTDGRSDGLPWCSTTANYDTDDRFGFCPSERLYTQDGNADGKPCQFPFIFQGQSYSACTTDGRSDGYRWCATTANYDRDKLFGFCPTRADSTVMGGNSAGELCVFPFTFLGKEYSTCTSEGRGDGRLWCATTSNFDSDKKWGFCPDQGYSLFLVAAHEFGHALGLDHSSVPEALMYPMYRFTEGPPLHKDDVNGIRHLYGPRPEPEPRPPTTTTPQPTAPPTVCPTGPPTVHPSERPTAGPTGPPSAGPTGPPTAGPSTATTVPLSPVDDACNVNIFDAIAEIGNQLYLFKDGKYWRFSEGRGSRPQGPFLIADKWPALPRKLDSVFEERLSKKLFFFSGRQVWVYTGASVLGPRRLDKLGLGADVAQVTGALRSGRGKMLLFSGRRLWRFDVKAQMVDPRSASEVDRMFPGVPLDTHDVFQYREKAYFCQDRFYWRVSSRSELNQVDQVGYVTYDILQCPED

binding result	Binder
no binding (tested: 2 µg/ml)	B10
no binding (tested: 2 µg/ml)	B1
no binding (tested: 2 µg/ml)	B2
no binding (tested: 2 µg/ml)	B11
no binding (tested: 2 µg/ml)	B3
no binding (tested: 2 µg/ml)	B4
no binding (tested: 2 µg/ml)	B13
no binding (tested: 2 µg/ml)	B5
no binding (tested: 2 µg/ml)	B6
no binding (tested: 2 µg/ml)	B14
no binding (tested: 2 µg/ml)	B7
no binding (tested: 2 µg/ml)	B8
no binding (tested: 2 µg/ml)	B9
